The values below come from paper PMC4024244 (Human genetics, 2013).

T1: muscle-specific receptor tyrosine kinase (MuSK), wild type, expressed in HEK-293 (human, UniProt O15146 24-869)
T1 sequence (looked up): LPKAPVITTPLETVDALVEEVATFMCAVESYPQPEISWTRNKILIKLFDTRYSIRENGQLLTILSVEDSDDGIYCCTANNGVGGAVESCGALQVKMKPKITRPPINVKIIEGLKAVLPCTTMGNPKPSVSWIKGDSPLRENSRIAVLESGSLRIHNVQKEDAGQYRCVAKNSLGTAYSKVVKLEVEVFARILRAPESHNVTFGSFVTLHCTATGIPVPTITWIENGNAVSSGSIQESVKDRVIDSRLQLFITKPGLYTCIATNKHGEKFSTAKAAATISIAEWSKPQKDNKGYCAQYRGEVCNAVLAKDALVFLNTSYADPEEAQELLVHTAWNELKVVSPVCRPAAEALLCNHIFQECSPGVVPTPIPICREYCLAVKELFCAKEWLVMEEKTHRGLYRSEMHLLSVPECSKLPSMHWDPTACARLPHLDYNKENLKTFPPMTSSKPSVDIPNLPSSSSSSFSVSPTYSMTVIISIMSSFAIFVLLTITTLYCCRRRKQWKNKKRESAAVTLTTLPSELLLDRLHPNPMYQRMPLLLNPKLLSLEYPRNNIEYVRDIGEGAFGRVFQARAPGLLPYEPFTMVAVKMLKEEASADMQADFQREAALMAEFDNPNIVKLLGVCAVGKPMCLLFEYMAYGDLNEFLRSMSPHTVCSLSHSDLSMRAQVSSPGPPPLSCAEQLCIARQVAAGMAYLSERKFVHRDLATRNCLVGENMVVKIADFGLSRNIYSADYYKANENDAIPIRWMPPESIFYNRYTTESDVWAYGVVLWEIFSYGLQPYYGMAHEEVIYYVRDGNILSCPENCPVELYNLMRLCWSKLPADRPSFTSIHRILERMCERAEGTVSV

T2: MuSK protein (Millipore) (UniProt O15146 24-495)
T2 chain: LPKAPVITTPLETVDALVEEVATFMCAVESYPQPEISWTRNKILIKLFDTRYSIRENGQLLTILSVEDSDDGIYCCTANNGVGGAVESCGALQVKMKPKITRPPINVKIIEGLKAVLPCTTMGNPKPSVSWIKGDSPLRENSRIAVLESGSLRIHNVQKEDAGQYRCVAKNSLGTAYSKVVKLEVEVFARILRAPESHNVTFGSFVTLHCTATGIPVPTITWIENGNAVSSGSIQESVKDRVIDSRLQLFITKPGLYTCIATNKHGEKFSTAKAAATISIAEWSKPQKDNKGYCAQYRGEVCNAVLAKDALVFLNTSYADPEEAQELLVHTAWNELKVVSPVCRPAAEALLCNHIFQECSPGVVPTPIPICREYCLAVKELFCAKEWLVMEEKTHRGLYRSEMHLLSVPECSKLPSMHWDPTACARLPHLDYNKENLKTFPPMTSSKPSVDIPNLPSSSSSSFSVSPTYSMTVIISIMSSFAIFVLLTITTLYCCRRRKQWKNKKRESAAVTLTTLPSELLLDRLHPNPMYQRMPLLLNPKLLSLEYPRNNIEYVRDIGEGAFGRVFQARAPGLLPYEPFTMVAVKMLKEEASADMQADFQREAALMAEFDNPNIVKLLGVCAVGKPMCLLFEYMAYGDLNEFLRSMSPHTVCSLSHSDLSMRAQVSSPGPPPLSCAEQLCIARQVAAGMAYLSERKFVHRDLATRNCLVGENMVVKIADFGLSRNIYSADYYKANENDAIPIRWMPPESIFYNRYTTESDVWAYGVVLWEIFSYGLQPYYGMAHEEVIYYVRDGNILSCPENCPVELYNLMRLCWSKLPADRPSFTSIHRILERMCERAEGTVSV

B1: ColQ p.Asp370Asn (natural protein, human, UniProt Q9Y215-1 23-455, looked up)
chain: QPTFINSVLPISAALPSLDQKKRGGHKACCLLTPPPPPLFPPPFFRGGRSPLLSPDMKNLMLELETSQSPCMQGSLGSPGPPGPQGPPGLPGKTGPKGEKGELGRPGRKGRPGPPGVPGMPGPIGWPGPEGPRGEKGDLGMMGLPGSRGPMGSKGYPGSRGEKGSRGEKGDLGPKGEKGFPGFPGMLGQKGEMGPKGEPGIAGHRGPTGRPGKRGKQGQKGDSGVMGPPGKPGPSGQPGRPGPPGPPPAGQLIMGPKGERGFPGPPGRCLCGPTMNVNNPSYGESVYGPSSPRVPVIFVVNNQEELERLNTQNAIAFRRDQRSLYFKDSLGWLPIQLTPFYPVDYTANQHGTCGDGLLQPGEECDDGNSDVGDDCIRCHRAYCGDGHRHEGVEDCDGSDFGYLTCETYLPGSYGDLQCTQYCYIDSTPCRYFT
B2: ColQ p.Tyr404Asp (natural protein, human, UniProt Q9Y215-1 23-455, looked up)
chain: QPTFINSVLPISAALPSLDQKKRGGHKACCLLTPPPPPLFPPPFFRGGRSPLLSPDMKNLMLELETSQSPCMQGSLGSPGPPGPQGPPGLPGKTGPKGEKGELGRPGRKGRPGPPGVPGMPGPIGWPGPEGPRGEKGDLGMMGLPGSRGPMGSKGYPGSRGEKGSRGEKGDLGPKGEKGFPGFPGMLGQKGEMGPKGEPGIAGHRGPTGRPGKRGKQGQKGDSGVMGPPGKPGPSGQPGRPGPPGPPPAGQLIMGPKGERGFPGPPGRCLCGPTMNVNNPSYGESVYGPSSPRVPVIFVVNNQEELERLNTQNAIAFRRDQRSLYFKDSLGWLPIQLTPFYPVDYTADQHGTCGDGLLQPGEECDDGNSDVGDDCIRCHRADCGDGHRHEGVEDCDGSDFGYLTCETYLPGSYGDLQCTQYCYIDSTPCRYFT
B3: ColQ p.Gly423Val (natural protein, human, UniProt Q9Y215-1 23-455, looked up)
chain: QPTFINSVLPISAALPSLDQKKRGGHKACCLLTPPPPPLFPPPFFRGGRSPLLSPDMKNLMLELETSQSPCMQGSLGSPGPPGPQGPPGLPGKTGPKGEKGELGRPGRKGRPGPPGVPGMPGPIGWPGPEGPRGEKGDLGMMGLPGSRGPMGSKGYPGSRGEKGSRGEKGDLGPKGEKGFPGFPGMLGQKGEMGPKGEPGIAGHRGPTGRPGKRGKQGQKGDSGVMGPPGKPGPSGQPGRPGPPGPPPAGQLIMGPKGERGFPGPPGRCLCGPTMNVNNPSYGESVYGPSSPRVPVIFVVNNQEELERLNTQNAIAFRRDQRSLYFKDSLGWLPIQLTPFYPVDYTADQHGTCGDGLLQPGEECDDGNSDVGDDCIRCHRAYCGDGHRHEGVEDCDGSDFVYLTCETYLPGSYGDLQCTQYCYIDSTPCRYFT
B4: ColQ p.Cys397Ser (natural protein, human, UniProt Q9Y215-1 23-455, looked up)
chain: QPTFINSVLPISAALPSLDQKKRGGHKACCLLTPPPPPLFPPPFFRGGRSPLLSPDMKNLMLELETSQSPCMQGSLGSPGPPGPQGPPGLPGKTGPKGEKGELGRPGRKGRPGPPGVPGMPGPIGWPGPEGPRGEKGDLGMMGLPGSRGPMGSKGYPGSRGEKGSRGEKGDLGPKGEKGFPGFPGMLGQKGEMGPKGEPGIAGHRGPTGRPGKRGKQGQKGDSGVMGPPGKPGPSGQPGRPGPPGPPPAGQLIMGPKGERGFPGPPGRCLCGPTMNVNNPSYGESVYGPSSPRVPVIFVVNNQEELERLNTQNAIAFRRDQRSLYFKDSLGWLPIQLTPFYPVDYTADQHGTCGDGLLQPGEECDDGNSDVGDDSIRCHRAYCGDGHRHEGVEDCDGSDFGYLTCETYLPGSYGDLQCTQYCYIDSTPCRYFT
B5: ColQ p.Cys400Tyr (natural protein, human, UniProt Q9Y215-1 23-455, looked up)
chain: QPTFINSVLPISAALPSLDQKKRGGHKACCLLTPPPPPLFPPPFFRGGRSPLLSPDMKNLMLELETSQSPCMQGSLGSPGPPGPQGPPGLPGKTGPKGEKGELGRPGRKGRPGPPGVPGMPGPIGWPGPEGPRGEKGDLGMMGLPGSRGPMGSKGYPGSRGEKGSRGEKGDLGPKGEKGFPGFPGMLGQKGEMGPKGEPGIAGHRGPTGRPGKRGKQGQKGDSGVMGPPGKPGPSGQPGRPGPPGPPPAGQLIMGPKGERGFPGPPGRCLCGPTMNVNNPSYGESVYGPSSPRVPVIFVVNNQEELERLNTQNAIAFRRDQRSLYFKDSLGWLPIQLTPFYPVDYTADQHGTCGDGLLQPGEECDDGNSDVGDDCIRYHRAYCGDGHRHEGVEDCDGSDFGYLTCETYLPGSYGDLQCTQYCYIDSTPCRYFT
B6: purified A12 asymmetric form of AChE with ColQ p.Cys397Ser (complex, human)
chain 1: QPTFINSVLPISAALPSLDQKKRGGHKACCLLTPPPPPLFPPPFFRGGRSPLLSPDMKNLMLELETSQSPCMQGSLGSPGPPGPQGPPGLPGKTGPKGEKGELGRPGRKGRPGPPGVPGMPGPIGWPGPEGPRGEKGDLGMMGLPGSRGPMGSKGYPGSRGEKGSRGEKGDLGPKGEKGFPGFPGMLGQKGEMGPKGEPGIAGHRGPTGRPGKRGKQGQKGDSGVMGPPGKPGPSGQPGRPGPPGPPPAGQLIMGPKGERGFPGPPGRCLCGPTMNVNNPSYGESVYGPSSPRVPVIFVVNNQEELERLNTQNAIAFRRDQRSLYFKDSLGWLPIQLTPFYPVDYTADQHGTCGDGLLQPGEECDDGNSDVGDDSIRCHRAYCGDGHRHEGVEDCDGSDFGYLTCETYLPGSYGDLQCTQYCYIDSTPCRYFT
chain 2: EGREDAELLVTVRGGRLRGIRLKTPGGPVSAFLGIPFAEPPMGPRRFLPPEPKQPWSGVVDATTFQSVCYQYVDTLYPGFEGTEMWNPNRELSEDCLYLNVWTPYPRPTSPTPVLVWIYGGGFYSGASSLDVYDGRFLVQAERTVLVSMNYRVGAFGFLALPGSREAPGNVGLLDQRLALQWVQENVAAFGGDPTSVTLFGESAGAASVGMHLLSPPSRGLFHRAVLQSGAPNGPWATVGMGEARRRATQLAHLVGCPPGGTGGNDTELVACLRTRPAQVLVNHEWHVLPQESVFRFSFVPVVDGDFLSDTPEALINAGDFHGLQVLVGVVKDEGSYFLVYGAPGFSKDNESLISRAEFLAGVRVGVPQVSDLAAEAVVLHYTDWLHPEDPARLREALSDVVGDHNVVCPVAQLAGRLAAQGARVYAYVFEHRASTLSWPLWMGVPHGYEIEFIFGIPLDPSRNYTAEEKIFAQRLMRYWANFARTGDPNEPRDPKAPQWPPYTAGAQQYVSLDLRPLEVRRGLRAQACAFWNRFLPKLLSATDTLDEAERQWKAEFHRWSSYMVHWKNQFDHYSKQDRCSDL
B7: purified A12 asymmetric form of AChE with ColQ p.Asp370Asn (complex, human)
chain 1: QPTFINSVLPISAALPSLDQKKRGGHKACCLLTPPPPPLFPPPFFRGGRSPLLSPDMKNLMLELETSQSPCMQGSLGSPGPPGPQGPPGLPGKTGPKGEKGELGRPGRKGRPGPPGVPGMPGPIGWPGPEGPRGEKGDLGMMGLPGSRGPMGSKGYPGSRGEKGSRGEKGDLGPKGEKGFPGFPGMLGQKGEMGPKGEPGIAGHRGPTGRPGKRGKQGQKGDSGVMGPPGKPGPSGQPGRPGPPGPPPAGQLIMGPKGERGFPGPPGRCLCGPTMNVNNPSYGESVYGPSSPRVPVIFVVNNQEELERLNTQNAIAFRRDQRSLYFKDSLGWLPIQLTPFYPVDYTANQHGTCGDGLLQPGEECDDGNSDVGDDCIRCHRAYCGDGHRHEGVEDCDGSDFGYLTCETYLPGSYGDLQCTQYCYIDSTPCRYFT
chain 2: EGREDAELLVTVRGGRLRGIRLKTPGGPVSAFLGIPFAEPPMGPRRFLPPEPKQPWSGVVDATTFQSVCYQYVDTLYPGFEGTEMWNPNRELSEDCLYLNVWTPYPRPTSPTPVLVWIYGGGFYSGASSLDVYDGRFLVQAERTVLVSMNYRVGAFGFLALPGSREAPGNVGLLDQRLALQWVQENVAAFGGDPTSVTLFGESAGAASVGMHLLSPPSRGLFHRAVLQSGAPNGPWATVGMGEARRRATQLAHLVGCPPGGTGGNDTELVACLRTRPAQVLVNHEWHVLPQESVFRFSFVPVVDGDFLSDTPEALINAGDFHGLQVLVGVVKDEGSYFLVYGAPGFSKDNESLISRAEFLAGVRVGVPQVSDLAAEAVVLHYTDWLHPEDPARLREALSDVVGDHNVVCPVAQLAGRLAAQGARVYAYVFEHRASTLSWPLWMGVPHGYEIEFIFGIPLDPSRNYTAEEKIFAQRLMRYWANFARTGDPNEPRDPKAPQWPPYTAGAQQYVSLDLRPLEVRRGLRAQACAFWNRFLPKLLSATDTLDEAERQWKAEFHRWSSYMVHWKNQFDHYSKQDRCSDL

For one test, the target named is T1, muscle-specific receptor tyrosine …. Nature of the test: co-IP.
B1: the “percent reduction of binding to MuSK against WT ColQ” value (“percent reduction of binding to MuSK” below) was 1.5%.
Consider B2, for which the “percent reduction of binding to MuSK” value worked out at 7.4%.
In the case of B3, the “percent reduction of binding to MuSK” value worked out at 16.8%.
On the same count and under the same terms, as for B4, the figure is 6.7%; as for B5, 5%.

The next test deals with T2, MuSK protein (Millipore). Nature of the test: plate overlay binding assay with.
On to B6, for which the other was found to be 18%.
The same measure, in the same setting: as for B7, the figure is 15%.
